# Measured values reported in patent US8329186B2, “Treatment of inflammation using BST2 inhibitor” (Isu Abxis Co., Ltd, priority 2004, dated 2012).
# d = 2'-deoxy (DNA); r = 2'-OH (RNA)
# B1: Bst2 decoy-IgG Fc fusion proteins: recombinant chimeric fusion proteins of the extracellular domain of human Bst2 and the Fc region of human IgG (protein)
# chain: NSEACRDGLRAVMECRNVTHLLQQELTEAQKGFQDVEAQAATCNHTVMALMASLDAEKAQGQKKVEELEGEITTLNHKLQDASAEVERLRRENQVLSVRIADKKYYPSSQD
# modifications: left off: a dimerising Fc or GST
# B2: PEG-conjugated Bst2 decoy: aldehyde PEG-conjugated human Bst2 decoy sample (conjugate, UniProt Q10589 49-161, looked up)
# extracellular domain: NSEACRDGLRAVMECRNVTHLLQQELTEAQKGFQDVEAQAATCNHTVMALMASLDAEKAQGQKKVEELEGEITTLNHKLQDASAEVERLRRENQVLSVRIADKKYYPSSQDSS
# modifications: extracellular domain aldehyde PEG conjugate
# notes: aldehyde PEG-conjugated human Bst2 decoy sample
# B3: mouse Damp1 decoy: soluble Damp1 protein fragment having the amino acid sequence of SEQ ID NO:2 (protein, listed as Mus musculus)
# chain: FAVTANSVACRDGLRAQAECRNTTHLLQRQLTRTQDSLLQAETQANSCNLTVVTLQESLEKKVSQALEQQARIKELENEVTKLNQELENLRIQKETSSTVQVNS
# B4: 2-15: anti-Bst2/Damp1 monoclonal antibody; heavy chain variable SEQ ID NO:77, kappa SEQ ID NO:88 (antibody, V domains shown)
# VH: MAQSVKESEGRLVTPGTPLTLTCTVSGFSLSNSGMSWVRQAPGKGLEWIGLINSYGTTYYASWAKGRFTISKTSTTVELKITSPTTEDTATYFCARGAGSSYGLWGQGTLVTVSSAS
# VL: QAAELVMTQTPSSTSTAVGDTVTIKCQASQSIGSNLAWYQQKPGQPPKILIYSASNLASGVPSRFKGSGSGTEYTLTISGVQREDAATYYCLGSDSSWDTVFGGGTELEILRTV
# modifications: 2-15 heavy chain variable region amino acid sequence; 2-15 kappa chain variable region amino acid sequence
# Columns and labels:
# [1] = test system: ICAM1 expression or Bst2 expression; test: RT-PCR of Bst2 and ICAM1 expression in IFNγ-treated HUVEC after siRNA; assay type: cell-based, human
# Protocol: (§1) HUVECs were cultured in 12-well plates with or without transfection of Bst2 siRNA or control siRNA for 6 hr, then treated with or without IFNγ for 24 hr. In some experiments, cells were treated with crude media containing Bst2 decoy or mouse anti-human ICAM1 antibodies. After a wash with PBS (phosphate buffered saline), U937 cells were resuspended in serum free medium at 2×10^6 cells/ml. Assays were initiated by the addition of 200 ul U937 cells to HUVEC for a final volume of 1 ml. After 4 hr at 37° C., unbound U937 cells were removed by washing plates three times with PBS. Bound cells were fixed by the addition of 4% paraformaldehyde in PBS, and the bound cells were counted under microscopy in different fields. All statistical analyses were performed in Excel and statistical significance were evaluated with Student's t test. In some experiments, RNA samples were obtained from HUVECs after treatment with IFNγ and/or siRNAs, and real-time polymerase chain reaction (RT-PCR) analyses were performed.
# RT-PCR analyses were performed.
# HUVECs and U937 cells = test: Heterotypic aggregation/adhesion between IFN-γ-treated HUVECs and U937 cells; assay type: cell-based, human
# Protocol: HUVECs (1−5×10^4 cells/ml) were seeded onto a 12-well cell culture plate. After one day, the medium was exchanged with a low-serum medium containing 0.5% FBS, and the cells were pretreated with interferon-gamma (IFN-γ; Calbiochem) in a final concentration 10 ng/ml for 24 hrs. Then, the pretreated HUVECs were co-cultured with U937 cells (2×10^6 cells/ml, 500 μl) at 37° C. for 4 hrs. The co-culture was washed with phosphate buffer three or four times, and the remaining cells were fixed with 4% paraformaldehyde and microscopically observed.
# HUVECs were transfected with an expression vector for Bst2, treated with or without IFN-γ and then transfected with Bst2 siRNA. These cells were assessed for U937 cell adhesion.
# as §1
# IL-4, IL-5 and IL-13 = test: Ovalbumin-induced mouse model of asthma: cytokines in lung tissue (immunoblot); assay type: in vivo; conditions: ovalbumin-sensitized asthmatic mice
# Protocol: (§2) A mouse model of asthma was prepared by sensitizing mice (C57B6, 8 weeks) with ovalbumin. In detail, mice were initially sensitized for five continuous days by intranasal injection of ovalbumin. After three weeks, mice were intranasally sensitized again with ovalbumin for five continuous days. One week after the secondary sensitization, mice were challenged intranasally with ovalbumin three times every 24 hrs to induce asthma. Herein, a Bst2 decoy was intravenously injected into mice 30 min before sensitization with ovalbumin, and was injected into mice 30 min before the first sensitization and the last injection of ovalbumin. Three days after the last injection, serum samples, lung tissues, and the like were collected from mice.
# When a Bst2 or Damp1 decoy was injected into a mouse model of asthma which was induced by sensitization and challenge with ovalbumin, expression levels of cytokines (interleukin-4 (IL-4), interleukin-5 (IL-5) and interleukin-13 (IL-13)) were measured as follows. […] The bound primary antibodies were detected with a HRP-conjugated secondary antibody (anti-rabbit HRP-conjugated IgG) using ECL reagent.
# Expression of 11-4, IL-5 and IL-13 was measured in the murine asthma model as described in Example 8-3 after injection with Bst2 decoy or Bst2 decoy Fc fusion proteins.
# U937 cells = test: Competitive inhibition of U937 cell binding to Bst2 decoy coated plates; design: species or system human; conditions: cells pre-incubated with fusion proteins 2 hrs
# Protocol: Competitive inhibition of Fc fusion proteins in the binding between BST2 decoy and cells was measured as follows. Flat-bottomed 96-well plates were coated with Bst2 decoy (50 ug/ml) with sodium bicarbonate (100 mM, pH 9.5) for 2 hrs at 37° C. The plates were washed with PBS (pH 7.4) and incubated with 1% bovine serum albumin (BSA) at 25° C. After a rinse with PBS (pH 7.4) containing 1 mM CaCl2 and 0.5 mM MgCl2, U937 cells (1×10^6/ml) were added to each Bst2-coated well. Before the addition, cells were pre-incubated with BST2 decoy-Fc fusion proteins for 2 hrs at 37° C. Bound cells were counted as described in Example 20.
# [2] = In vivo stability of PEG-conjugated Bst2 decoy in rats (ELISA of blood samples); design: species or system rat; conditions: tail vein, 0.4 to 2 mg/kg, compared to Bst2 decoy
# Protocol: The PEG-conjugated forms of Bst2 decoy, prepared in Example 11-1, were injected into the tail vein of 7 week-old male Sprague-Dawley rats in a dose of 0.4 to 2 mg/kg. A negative control group was injected with an equal dose of physiological saline. Also, an equal dose of Bst2 decoy protein was used as a positive control. Blood samples were collected before drug administration, and 2 min, 5 min, 10 min, 30 min, 1 hr, 2 hrs, 6 hrs, 12 hrs and 24 hrs after drug administration from the jugular vein using a cannula. The collected blood samples were analyzed by ELISA. A 96-well plate was coated with an anti-Bst2 decoy antibody (100 ng/ml in PBS) at 4° C. for 8 hrs or longer, and was blocked with albumin in PBS at 37° C. for 2 hrs. The plate was reacted with a proper dilution of rat serum or Bst2 decoy (standard sample) at 37° C. for 2 hrs. The plate was then reacted with a monoclonal antibody (mAb conjugated with horseradish peroxidase, Roche Inc.) recognizing the histidine tag added to the C-terminus of Bst2 decoy at 37° C. for 2 hrs. After being well washed, the plate was treated with a substance of peroxidase, and absorbance was measured at 450 nm. Quantitation of the PEG-conjugated Bst2 decoys present in blood was performed using the standard samples (FIG. 18). […]
# mouse model of asthma = test: Ovalbumin-induced mouse model of asthma: infiltrating cells in bronchoalveolar lavage; assay type: in vivo; conditions: ovalbumin-sensitized mice
# Protocol: as §2
# A mouse model of asthma was prepared as described in Example 8-1.
# The effect of Bst2 decoy-Fc fusions on immune cell infiltration was assessed as described in Example 8-2. When ovalbumin-sensitized mice were treated with a Bst2 decoy, the total number of infiltrating cells was decreased and, especially, the number of neutrophils, eosinophils and lymphocytes except for macrophage was decreased in bronchoalveolar lavage (BAL) (FIG. 27).
# A mouse model of asthma was prepared as described in Example 8-1. The effect of anti-Bst2/Damp1 antibodies on immune cell infiltration was assessed as described in Example 8-2. […]
molecule,measurement,setting,value
"Bst2 siRNA: siRNA against Bst2 mRNA target sequence SEQ ID NO:5; sense SEQ ID NO:6, antisense SEQ ID NO:7 (sense UUGUCCGCGAUUCUCACGCTT; antisense GCGUGAGAAUCGCGGACAATT; sugars from the 5' end r19 d2, backbone not given here)",ICAM1 expression,[1],does not affect
same,U937 cell adhesion to HUVECs,"HUVECs and U937 cells; HUVECs transfected with Bst2 expression vector, with or without IFN-γ",decreased U937 cell adhesion
same,cell adhesion between untransfected HUVEC and U937 cells,"HUVECs and U937 cells; untransfected HUVEC, IFNγ stimulation",inhibitory effect
B1,"cytokine levels (IL-4, IL-5, IL-13) in lung tissue","IL-4, IL-5 and IL-13",decreased
same,inhibition of U937 cell binding to Bst2 decoy coated cell culture plates,U937 cells,concentration-dependent inhibition
B2,metabolic degradation (in vivo stability),[2],improved metabolic degradation
B3,cell-cell interaction between human endothelial cells and human monocytic U937 cells,HUVECs and U937 cells,inhibits cell-cell interaction
B4,"number of infiltrating cells in bronchoalveolar lavage (total, neutrophils, eosinophils, lymphocytes)",mouse model of asthma,did not block immune cell infiltration significantly
